Tests used:
[1] = biological target: histidine-tagged recombinant FcγRIIIa (158V) (human); assay: SPR
[2] = biological target: hGITR on hGITR-transfected Jurkat cells (human) (UniProt Q9Y5U5)
[3] = biological target: hGITR on hGITR-transfected Jurkat cells (human) (UniProt Q9Y5U5); remark: listed apart in the source

Sequence of hGITR on hGITR-transfected Jurkat cells (human) (Q9Y5U5 26-241): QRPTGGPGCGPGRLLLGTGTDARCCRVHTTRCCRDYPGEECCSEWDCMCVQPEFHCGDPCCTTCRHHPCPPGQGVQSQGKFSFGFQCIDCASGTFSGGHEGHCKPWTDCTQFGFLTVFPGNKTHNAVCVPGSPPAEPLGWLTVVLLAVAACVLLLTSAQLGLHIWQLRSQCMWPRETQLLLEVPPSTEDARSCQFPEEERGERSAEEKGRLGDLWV

IgG1 isotype control antibody gave a Kd [1] of 175 nM.

“IgG4 Fc-containing GITRL FP (from UniProt Q9UNG2 49-177) (Fc fusion)” was tested, and the Jurkat-based NFκB reporter gene assay, EC50, comparison of Fc isotypes (Fig. S5) [2] was 0.3 nM.

“hGITRL FP with the human matrilin 1 trimerization domain (from UniProt Q9UNG2 49-177) (Fc fusion)” gave an NFκB-luciferase reporter in hGITR-transfected Jurkat cells, agonism EC50 [3] of 0.92 nM.
